Assay results published in article PMC2814116 (Journal of Experimental Botany, 2009).

Molecular target: the molecule itself
Experiment: SEC

B1: Recombinant PCNA2 protein of Arabidopsis thaliana (AtPCNA2) (natural protein, UniProt Q9ZW35 1-264, looked up)
chain: MLELRLVQGSLLKKVLEAVKDLVNDANFDCSTTGFSLQAMDSSHVALVSLLLRSEGFEHYRCDRNLSMGMNLGNMSKMLKCAGNDDIITIKADDGSDTVTFMFESPTQDKIADFEMKLMDIDSEHLGIPDAEYHSIVRMPSGEFSRICKDLSSIGDTVVISVTKEGVKFSTAGDIGTANIVLRQNTTVDKPEDAIVIEMNEPVSLSFALRYMNSFTKATPLSETVTISLSSELPVVVEYKVAEMGYIRYYLAPKIEEEEDTKPE
B1: binds.
